This passage reports Kd results from patent US20260297205 (published 2026).

The assay deals with human growth hormone (GH) (human, UniProt P01241). The experiment in a line: SPR, 20C. Background: SPR reads the build-up and loss of mass on a sensor chip optically.
human growth hormone (GH), sequence (P01241 27-217): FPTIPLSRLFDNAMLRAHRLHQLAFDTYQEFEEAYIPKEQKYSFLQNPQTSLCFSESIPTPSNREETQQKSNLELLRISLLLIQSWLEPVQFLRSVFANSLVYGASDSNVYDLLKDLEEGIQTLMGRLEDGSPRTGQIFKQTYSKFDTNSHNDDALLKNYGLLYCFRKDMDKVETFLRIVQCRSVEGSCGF

B1: GH42 (antibody, V domains shown)
VH: EVQLVESGGGLVQPGGSLRLSCAASGFNFSSSYIHWVRQAPGKGLEWVASISSSSGSTSYADSVKGRFTISADTSKNTAYLQMNSLRAEDTAVYYCARSPWYVYWYFGSALDYWGQGTLVTV
VL: DIQMTQSPSSLSASVGDRVTITCRASQSVSSAVAWYQQKPGKAPKLLIYSASSLYSGVPSRFSGSRSGTDFTLTISSLQPEDFATYYCQQSSSSLITFGQGTKVEIKR
The Kd is a measure of binding affinity in units of concentration. Turning to B1, the Kd was 2.2 nM.
